Laboratory results: patent publication US20210030857A1 (NGM BIOPHARMACEUTICALS, published 2021)
Values joined by “and” are separate entries in the source; they are usually repeats but may differ in a detail not shown here. Identical values can stand only once.

T1: human beta klotho expressed on cells (human, UniProt Q86Z14 1-1044)
T1 construct: also called HuKLB overexpressing cells; Human KLB
T1 sequence: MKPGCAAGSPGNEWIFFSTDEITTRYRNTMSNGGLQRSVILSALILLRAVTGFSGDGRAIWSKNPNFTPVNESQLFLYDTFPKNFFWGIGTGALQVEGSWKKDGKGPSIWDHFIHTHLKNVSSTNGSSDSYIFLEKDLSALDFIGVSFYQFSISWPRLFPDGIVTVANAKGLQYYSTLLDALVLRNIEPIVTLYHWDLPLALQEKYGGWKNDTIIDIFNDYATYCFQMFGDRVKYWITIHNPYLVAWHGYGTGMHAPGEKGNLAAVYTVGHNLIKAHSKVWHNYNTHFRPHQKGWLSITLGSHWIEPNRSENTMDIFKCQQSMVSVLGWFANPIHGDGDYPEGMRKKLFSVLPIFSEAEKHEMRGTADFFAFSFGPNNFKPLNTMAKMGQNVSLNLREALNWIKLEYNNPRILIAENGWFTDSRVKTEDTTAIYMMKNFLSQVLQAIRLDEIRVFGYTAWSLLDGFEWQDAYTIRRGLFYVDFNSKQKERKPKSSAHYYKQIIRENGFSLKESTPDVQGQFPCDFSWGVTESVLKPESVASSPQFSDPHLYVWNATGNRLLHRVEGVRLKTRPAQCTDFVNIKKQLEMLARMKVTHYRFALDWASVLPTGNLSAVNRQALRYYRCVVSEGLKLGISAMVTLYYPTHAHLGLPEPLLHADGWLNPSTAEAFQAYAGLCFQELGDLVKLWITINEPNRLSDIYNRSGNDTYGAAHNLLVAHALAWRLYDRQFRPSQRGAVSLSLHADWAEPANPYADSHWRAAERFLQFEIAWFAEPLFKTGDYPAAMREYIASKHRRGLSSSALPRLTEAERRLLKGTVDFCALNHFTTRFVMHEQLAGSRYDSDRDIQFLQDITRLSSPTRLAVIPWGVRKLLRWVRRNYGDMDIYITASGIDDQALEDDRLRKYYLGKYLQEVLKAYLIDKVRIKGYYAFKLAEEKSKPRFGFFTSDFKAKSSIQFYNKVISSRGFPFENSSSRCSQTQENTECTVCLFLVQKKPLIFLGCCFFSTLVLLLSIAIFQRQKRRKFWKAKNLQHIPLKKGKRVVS

T2: mouse beta klotho expressed on cells (mouse (Mus musculus), UniProt Q99N32 1-1043)
T2 construct: also called Mouse KLB
T2 sequence: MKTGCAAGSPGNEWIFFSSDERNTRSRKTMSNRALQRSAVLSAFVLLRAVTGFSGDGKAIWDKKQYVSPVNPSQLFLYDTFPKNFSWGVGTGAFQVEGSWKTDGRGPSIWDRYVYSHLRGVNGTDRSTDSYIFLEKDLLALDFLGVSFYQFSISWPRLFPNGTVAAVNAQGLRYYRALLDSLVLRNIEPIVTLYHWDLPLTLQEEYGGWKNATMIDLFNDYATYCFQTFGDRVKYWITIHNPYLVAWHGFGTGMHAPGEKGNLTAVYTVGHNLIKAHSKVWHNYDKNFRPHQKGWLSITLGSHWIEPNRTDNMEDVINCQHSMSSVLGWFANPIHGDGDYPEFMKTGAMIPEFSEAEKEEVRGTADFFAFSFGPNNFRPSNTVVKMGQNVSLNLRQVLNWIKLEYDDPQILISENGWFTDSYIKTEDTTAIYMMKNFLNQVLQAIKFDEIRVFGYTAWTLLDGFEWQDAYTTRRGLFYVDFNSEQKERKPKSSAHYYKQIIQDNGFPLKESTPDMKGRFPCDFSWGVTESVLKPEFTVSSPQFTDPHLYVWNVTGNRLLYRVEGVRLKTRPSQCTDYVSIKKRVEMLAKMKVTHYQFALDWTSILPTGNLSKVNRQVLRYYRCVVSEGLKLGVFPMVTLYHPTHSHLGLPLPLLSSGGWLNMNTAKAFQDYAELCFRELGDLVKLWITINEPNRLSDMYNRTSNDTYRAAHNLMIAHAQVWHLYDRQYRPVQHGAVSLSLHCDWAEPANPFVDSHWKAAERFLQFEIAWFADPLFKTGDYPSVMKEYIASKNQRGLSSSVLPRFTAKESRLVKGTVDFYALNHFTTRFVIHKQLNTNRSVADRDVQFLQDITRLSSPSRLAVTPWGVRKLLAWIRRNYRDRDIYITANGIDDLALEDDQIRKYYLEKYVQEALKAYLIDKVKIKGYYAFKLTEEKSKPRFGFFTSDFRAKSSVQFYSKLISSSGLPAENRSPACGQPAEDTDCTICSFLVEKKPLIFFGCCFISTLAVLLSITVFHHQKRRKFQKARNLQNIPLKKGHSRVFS

B1: antibody 5H23 (antibody, V domains shown)
VH: QVQLQQSGPELVKPGALVKISCKASGYTFTSYDINWVKQRPGQGLEWIGWIYPGDGSTKYNEKFKGKATLTADKSSRTAYMQLSSLTSENSAVYFCARSDYYGSRSFAYWGQGTLVTVSA
VL: DIVLTQSPASLAVSLGQRATISCRASKSVSTSGYVYMHWNQQKPGQPPKLLIYLASYLESGVPARFSGSGSGTDFTLNIHPVEEEDAAIYYCQHSRDLTFPFGGGTKLEIK
notes: Murine monoclonal antibody from hybridoma; also called 5H23-Alexa647 (labelled form)
B2: negative control antibody, anti-keyhole limpet hemocyanin (KLH) antibody (antibody, human IgG1, kappa, V domains shown)
VH: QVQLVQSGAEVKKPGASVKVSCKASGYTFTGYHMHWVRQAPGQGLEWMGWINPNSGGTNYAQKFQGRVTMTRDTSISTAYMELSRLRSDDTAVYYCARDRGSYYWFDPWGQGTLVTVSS
VL: DIQMTQSPSSLSASVGDRVTITCRASQGIRNDLGWYQQKPGKAPKRLIYAASSLQSGVPSRFSGSGSGTEFTLTISSLQPEDFATYYCLQHNSYPLTFGGGTKVEIKR
notes: also called Neg; Control; anti-KLH antibody
B3: humanized 5H23 antibody (VH SEQ ID NO: 271 and VL SEQ ID NO: 276) (antibody, V domains shown)
VH: QVQLQQSGAEVKKPGASVKVSCKASGYTFTSYDINWVRQAPGQGLEWIGWIYPGDGSTKYNEKFKGKATITRDTSASTAYMELSSLRSEDTAVYFCARSDYYGSRSFAYWGQGTLVTVSS
VL: DIVMTQSPDSLAVSLGERATINCRASKSVSTSGYVYMHWYQQKPGQPPKLLIYLASYLESGVPDRFSGSGSGTDFTLTISSVQAEDVAVYYCQHSRDLTFPFGGGTKLEIK
notes: also called h5H23; h5H23 (Prep 1)

Tests used:
[1] = biological target: human beta klotho / human FGFR1c receptor complex on cells (human, UniProt Q86Z14 1-1044; P11362 22-822); assay: cell-based or functional assay
[2] = biological target: T1, human beta klotho expressed on cells; assay: FACS on transfected Expi293 cells, antibody 1 µg/ml, labelled anti-human Fc
Procedure: (§1) Studies were performed in order to localize the binding site on human KLB of anti-beta klotho antibodies in the 5H23 epitope bin, including 5H23 as described in Example 3, with sequences shown in Tables 1-10 and FIGS. 1-3, and human anti-beta klotho antibodies in the 5H23 epitope bin, such as humanized 5H23 antibodies (e.g., VH SEQ ID NO: 271 and VL SEQ ID NO: 276). For example, FACS-based binding assays for domain mapping were performed on Expi293 cells (Life Technologies, A14635) that were transiently transfected with plasmids encoding variants of KLB: human, mouse, cynomolgus, a chimeric version in which the KL1 domain sequence of mouse KLB (M1-F506) replaces the KL1 domain of human KLB (M1-F508) to create mouse-human KLB (SEQ ID NO: 376), and a second chimera in which the human KL1 sequence (M1-F508) replaces the KL1 domain of mouse KLB (M1-F506) to create human-mouse KLB (SEQ ID NO: 374). Additionally, the expression vector pYD7 harboring no KLB sequence was transfected as a negative control.
(§2) In some studies, binding of a purified sample of a humanized 5H23 antibody (e.g., VH SEQ ID NO: 271 and VL SEQ ID NO: 276) to KLB variants was determined by FACS analysis. […] After washing with PBS/1% BSA/0.1% azide, transfected cells were then co-incubated with labeled anti-human Fc (Jackson lmmunoresearch) for 30 minutes at 4° C. After washing with PBS/1% BSA/0.1% azide, cells were acquired on flow cytometer (FACS Calibur) and analyzed by cytometric software (FlowJo). To display the resulting data, graphs plotting the number of cells as a function of fluorescence intensity were generated, and the median fluorescence intensity (MFI) was determined for each sample as shown in Table 30.

[3] = biological target: T2, mouse beta klotho expressed on cells; assay: as above
Procedure: as §1, §2

human beta klotho / human FGFR1c receptor complex on cells, sequence (P11362 22-822 limits assumed, one chain of several): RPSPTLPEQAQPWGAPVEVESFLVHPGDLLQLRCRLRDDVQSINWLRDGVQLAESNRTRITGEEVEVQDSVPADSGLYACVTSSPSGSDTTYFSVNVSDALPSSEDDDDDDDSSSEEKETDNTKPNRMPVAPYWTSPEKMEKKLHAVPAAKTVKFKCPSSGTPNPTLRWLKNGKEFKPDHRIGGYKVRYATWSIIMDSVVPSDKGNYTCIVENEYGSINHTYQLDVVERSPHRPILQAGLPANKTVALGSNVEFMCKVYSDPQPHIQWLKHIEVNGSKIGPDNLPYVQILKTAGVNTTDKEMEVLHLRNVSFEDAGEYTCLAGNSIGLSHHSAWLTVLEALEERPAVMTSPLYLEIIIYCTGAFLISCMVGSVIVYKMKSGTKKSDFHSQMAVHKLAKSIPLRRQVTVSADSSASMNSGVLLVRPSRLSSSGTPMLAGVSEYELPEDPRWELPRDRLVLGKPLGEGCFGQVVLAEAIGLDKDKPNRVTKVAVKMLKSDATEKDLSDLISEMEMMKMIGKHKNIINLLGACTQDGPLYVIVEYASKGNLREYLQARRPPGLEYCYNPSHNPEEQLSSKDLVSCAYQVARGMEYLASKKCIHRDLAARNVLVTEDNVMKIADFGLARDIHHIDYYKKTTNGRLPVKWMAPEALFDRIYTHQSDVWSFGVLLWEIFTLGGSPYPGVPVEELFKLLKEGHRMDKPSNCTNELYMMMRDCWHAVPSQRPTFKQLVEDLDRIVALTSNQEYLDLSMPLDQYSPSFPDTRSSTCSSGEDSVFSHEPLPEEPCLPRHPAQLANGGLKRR

Binder | EC50-adipocyte [1] | EC50 reporter assay [1] | Mean Fluorescence intensity [2] | Mean Fluorescence intensity [3]
B1 | 3.4 nM | 0.27 nM and 0.51 nM | – | –
B2 | – | – | 6.2 MFI | 9.59 MFI
B3 | – | – | 865 MFI | 14.2 MFI
